Assays:
[1] = target: full length human PD-1 on cells (human) (UniProt Q15116); test: flow cytometry, CHO-K1-hPD-1 cells; antibody 0.01 nM
[2] = target: full length human PD-1 on cells (human) (UniProt Q15116); test: flow cytometry, CHO-K1-hPD-1 cells; antibody 0.00001 nM
[3] = target: full length human PD-1 on cells (human) (UniProt Q15116); test: flow cytometry, CHO-K1-hPD-1 cells; antibody 0.001 nM
[4] = target: human PD-1^ECD-hFc protein (Immunogen A) (human) (UniProt Q15116); test: ELISA, coated human PD-1ECD-hFc; antibody 0.00001 nM
Chain of human PD-1^ECD-hFc protein (Immunogen A) (human) (Q15116 25-167): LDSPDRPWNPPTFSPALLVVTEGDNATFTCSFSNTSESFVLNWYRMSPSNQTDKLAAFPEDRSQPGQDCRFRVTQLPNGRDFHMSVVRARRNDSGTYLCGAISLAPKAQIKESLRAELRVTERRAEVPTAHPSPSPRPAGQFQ

B7-1 (human) = B7-1 (human) (UniProt P33681); test: ELISA, coated protein 1 ug/mL; antibody concentration not stated
Chain of B7-1 (human) (P33681 35-242 limits assumed): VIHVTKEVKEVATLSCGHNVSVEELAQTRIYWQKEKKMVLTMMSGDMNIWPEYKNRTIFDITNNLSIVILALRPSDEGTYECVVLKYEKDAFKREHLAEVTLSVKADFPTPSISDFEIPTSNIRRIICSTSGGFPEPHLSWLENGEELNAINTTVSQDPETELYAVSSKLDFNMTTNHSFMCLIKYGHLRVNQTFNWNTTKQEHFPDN

ICOS (human) = ICOS (human) (UniProt Q9Y6W8); test: as above
Chain of ICOS (human) (Q9Y6W8 21-140 limits assumed): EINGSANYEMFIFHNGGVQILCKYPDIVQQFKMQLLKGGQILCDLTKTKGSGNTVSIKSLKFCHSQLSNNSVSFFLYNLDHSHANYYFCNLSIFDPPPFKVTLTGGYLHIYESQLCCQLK

CD28 (human) = CD28 (human) (UniProt P10747); test: as above
Chain of CD28 (human) (P10747 19-152 limits assumed): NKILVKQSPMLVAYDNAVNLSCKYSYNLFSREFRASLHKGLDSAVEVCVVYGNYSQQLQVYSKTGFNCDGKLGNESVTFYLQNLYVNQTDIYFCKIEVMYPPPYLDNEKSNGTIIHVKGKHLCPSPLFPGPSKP

[5] = target: human PD-1^ECD-hFc protein (Immunogen A) (human) (UniProt Q15116); test: as above
CTLA4 (human) = CTLA4 (human) (UniProt P16410); test: as above
Chain of CTLA4 (human) (P16410 37-162 limits assumed): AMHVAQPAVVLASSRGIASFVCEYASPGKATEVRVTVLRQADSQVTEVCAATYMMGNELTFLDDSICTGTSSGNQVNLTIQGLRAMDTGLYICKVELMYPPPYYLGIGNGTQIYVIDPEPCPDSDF

[6] = target: cyno PD-1^ECD-hFc protein (cyno monkey) (UniProt B0LAJ3); test: ELISA, coated cyno PD-1ECD-hFc; antibody 0.00001 nM
Chain of cyno PD-1^ECD-hFc protein (cyno monkey) (B0LAJ3 entry or part of it limits assumed): as the sequence (Q15116 25-167) above, with D2E, P10A, V19L, T35A, Q75R counted along it

[7] = target: human PD-1^ECD-hFc protein (Immunogen A) (human) (UniProt Q15116); test: ELISA, coated human PD-1ECD-hFc; antibody 0.0001 nM
[8] = target: human PD-1^ECD-hFc protein (Immunogen A) (human) (UniProt Q15116); test: ELISA, coated human PD-1ECD-hFc; antibody 0.001 nM
[9] = target: cyno PD-1^ECD-hFc protein (cyno monkey) (UniProt B0LAJ3); test: ELISA, coated cyno PD-1ECD-hFc; antibody 0.0001 nM
[10] = target: full length human PD-1 on cells (human) (UniProt Q15116); test: flow cytometry, CHO-K1-hPD-1 cells; antibody 0.0001 nM
[11] = target: human PD-1, full length, on cells (human) (UniProt Q15116); test: cell-based or functional assay
Chain of human PD-1, full length, on cells (human) (Q15116 25-288): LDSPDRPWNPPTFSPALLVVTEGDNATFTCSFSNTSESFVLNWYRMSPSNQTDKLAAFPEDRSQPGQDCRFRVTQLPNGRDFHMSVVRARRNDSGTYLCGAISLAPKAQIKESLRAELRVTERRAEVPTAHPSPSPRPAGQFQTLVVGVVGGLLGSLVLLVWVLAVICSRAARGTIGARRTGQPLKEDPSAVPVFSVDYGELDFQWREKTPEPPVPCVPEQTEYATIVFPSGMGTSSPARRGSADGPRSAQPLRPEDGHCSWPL

[12] = target: cyno PD-1^ECD-hFc protein (cyno monkey) (UniProt B0LAJ3); test: ELISA, coated cyno PD-1ECD-hFc; antibody 0.001 nM
[13] = target: human PD-1^ECD-hFc protein (Immunogen A) (human) (UniProt Q15116); test: ELISA, coated PD-1ECD-hFc; biotinylated protein 0.00001 ug/mL
[14] = target: human PD-1^ECD-hFc protein (Immunogen A) (human) (UniProt Q15116); test: ELISA, coated PD-1ECD-hFc; biotinylated protein 0.0016 ug/mL
[15] = target: human PD-1^ECD-hFc protein (Immunogen A) (human) (UniProt Q15116); test: ELISA, coated PD-1ECD-hFc; biotinylated protein 0.008 ug/mL
[16] = target: human PD-1^ECD-hFc protein (Immunogen A) (human) (UniProt Q15116); test: ELISA, coated PD-1ECD-hFc; biotinylated protein 0.2 ug/mL
[17] = target: human PD-1^ECD-hFc protein (Immunogen A) (human) (UniProt Q15116); test: ELISA, coated PD-1ECD-hFc; biotinylated protein 0.0001 ug/mL
[18] = target: human PD-1^ECD-hFc protein (Immunogen A) (human) (UniProt Q15116); test: ELISA, coated PD-1ECD-hFc; biotinylated protein 0.04 ug/mL
[19] = target: human PD-1^ECD-hFc protein (Immunogen A) (human) (UniProt Q15116); test: ELISA, coated PD-1ECD-hFc; biotinylated protein 1 ug/mL
[20] = target: human PD-1^ECD-hFc protein (Immunogen A) (human) (UniProt Q15116); test: ELISA, coated PD-1ECD-hFc; biotinylated protein 0.0003 ug/mL

Chain of full length human PD-1 on cells (human) (Q15116 25-288 limits assumed): as the sequence (Q15116 25-288) above

IgG control (human IgG) (antibody)
Mean fluorescence intensity [1]: 2.9
Mean fluorescence intensity [2]: 2.7
Mean fluorescence intensity [3]: 2.9
OD450 nm [4]: 0.287
OD450 nm (B7-1 (human)): 0.07
OD450 nm (ICOS (human)): 0.142
OD450 nm (CD28 (human)): 0.064
OD450 nm [5]: 0.082
OD450 nm (CTLA4 (human)): 0.062
OD450 nm [6]: 0.116
OD450 nm [7]: 0.298
OD450 nm [8]: 0.311
OD450 nm [9]: 0.11
Mean fluorescence intensity [10]: 3.1
IFN-γ release, mixed lymphocyte reaction (PBMC donor-2), antibody 0.01 µg/mL [11]: 353 pg/mL
IFN-γ release, mixed lymphocyte reaction (PBMC donor-2), antibody 0.1 µg/mL [11]: 281 pg/mL
IFN-γ release, mixed lymphocyte reaction (PBMC donor-2), antibody 1 µg/mL [11]: 127 pg/mL
OD450 nm [12]: 0.106

control protein (biotinylated non-PD-L1^ECD-hFc)
OD450 nm [13]: 0.205
OD450 nm [14]: 0.195
OD450 nm [15]: 0.14
OD450 nm [16]: 0.095
OD450 nm [17]: 0.32
OD450 nm [18]: 0.09
OD450 nm [19]: 0.13
OD450 nm [20]: 0.195

From US20180214548A1
